For series [1], the target named is phenylpyruvate reductase from Lactobacillus sp. CGMCC 9967 (LaPPR) (Lactobacillus sp. CGMCC 9967). Nature of the series: crystal structure; apo-LaPPR wild type, sitting drop vapor diffusion, 20 °C, protein 28 mg/mL, 0.1 M citric acid pH 3.5, 14% w/v PEG 1000, 0.01 M beta-nicotinamide adenine dinucleotide; molecular replacement with PDB 3EVT.
Substrate in the series “purified protein”: O=C(O)C(=O)Cc1ccc(O)c(O)c1
Nature of the series: purified protein. Type of series: biochemical, Lactobacillus sp. CGMCC 9967. The conditions noted are these: 2 mM NADH, Tris-HCl 50 mM pH 7.0, 30 °C.

The results in this text go back to publication PMC10992476, “Efficient production of salvianic acid A from L-dihydroxyphenylalanine through a tri-enzyme cascade” (Bioresources and Bioprocessing, 2023).

By stoichiometry N is commonly meant a count of units in the complex or per binding partner. By Km is commonly meant the concentration of substrate that gives half-maximal velocity. One may read the kcat as the number of substrate molecules converted per active site and unit of time at saturation. A word on the kcat/Km: it is the turnover number divided by the Michaelis constant.

“phenylpyruvate reductase from Lactobacillus sp. CGMCC 9967 (LaPPR) (enzyme)” yielded a stoichiometry N in series [1] of 2.

B1: LaPPR (Lactobacillus sp. CGMCC 9967) (protein)
chain: MMKILNSFSLKPEQRQTLEAAGHTVIDADKLDDATAQQIDVVYGWNAAATRVNFDRLQFVQAMSAGVDYLPLAELAKHHVLLANTSGIHAEPIAEYVLGALFTISRGILPAIRADRDMWTLRQERPPMTLLKGKTAVIFGTGHIGSTIATKLQALGLHTIGVSAHGRPAAGFDQVMTDVATHEAAGRADVVINALPLTPDTKHFYDEAFFAAASKQPLFINIGRGPSVDMAALTQALKNKQISAAALDVVDPEPLPQDSPLWGMTNVLLTPHISGTVPQLRDKVFKIFNDNLKTLISSGQLASHQVDLTRGY
notes: homodimer
As to B1, in the series “purified protein”, the Km came to 6.20 ± 0.15 mM, the kcat came out at 1.21 ± 0.03 s⁻¹ and the kcat/Km is 200 M⁻¹ s⁻¹.

B2: LaPPR (Lactobacillus sp. CGMCC 9967; H89M) (protein)
chain: MMKILNSFSLKPEQRQTLEAAGHTVIDADKLDDATAQQIDVVYGWNAAATRVNFDRLQFVQAMSAGVDYLPLAELAKHHVLLANTSGIMAEPIAEYVLGALFTISRGILPAIRADRDMWTLRQERPPMTLLKGKTAVIFGTGHIGSTIATKLQALGLHTIGVSAHGRPAAGFDQVMTDVATHEAAGRADVVINALPLTPDTKHFYDEAFFAAASKQPLFINIGRGPSVDMAALTQALKNKQISAAALDVVDPEPLPQDSPLWGMTNVLLTPHISGTVPQLRDKVFKIFNDNLKTLISSGQLASHQVDLTRGY
notes: homodimer
In the case of B2, in the series “purified protein”, the Km is 5.74 ± 0.08 mM, the kcat worked out at 1.37 ± 0.06 s⁻¹ and the kcat/Km was 240 M⁻¹ s⁻¹.

B3: LaPPR (Lactobacillus sp. CGMCC 9967; H143D) (protein)
chain: MMKILNSFSLKPEQRQTLEAAGHTVIDADKLDDATAQQIDVVYGWNAAATRVNFDRLQFVQAMSAGVDYLPLAELAKHHVLLANTSGIHAEPIAEYVLGALFTISRGILPAIRADRDMWTLRQERPPMTLLKGKTAVIFGTGDIGSTIATKLQALGLHTIGVSAHGRPAAGFDQVMTDVATHEAAGRADVVINALPLTPDTKHFYDEAFFAAASKQPLFINIGRGPSVDMAALTQALKNKQISAAALDVVDPEPLPQDSPLWGMTNVLLTPHISGTVPQLRDKVFKIFNDNLKTLISSGQLASHQVDLTRGY
notes: homodimer
With B3, in “purified protein”, the Km is 5.03 ± 0.14 mM, the kcat worked out at 2.08 ± 0.11 s⁻¹ and the catalytic efficiency (kcat/Km) amounted to 410 M⁻¹ s⁻¹.

B4: LaPPR (Lactobacillus sp. CGMCC 9967; H143D/H89M/P256C) (protein)
chain: MMKILNSFSLKPEQRQTLEAAGHTVIDADKLDDATAQQIDVVYGWNAAATRVNFDRLQFVQAMSAGVDYLPLAELAKHHVLLANTSGIMAEPIAEYVLGALFTISRGILPAIRADRDMWTLRQERPPMTLLKGKTAVIFGTGDIGSTIATKLQALGLHTIGVSAHGRPAAGFDQVMTDVATHEAAGRADVVINALPLTPDTKHFYDEAFFAAASKQPLFINIGRGPSVDMAALTQALKNKQISAAALDVVDPEPLCQDSPLWGMTNVLLTPHISGTVPQLRDKVFKIFNDNLKTLISSGQLASHQVDLTRGY
notes: homodimer
For the molecule B4, in “purified protein”, the Michaelis constant (Km) is on record as 2.52 ± 0.27 mM, the kcat turned out to be 5.74 ± 0.24 s⁻¹ and the kcat/Km was 2050 M⁻¹ s⁻¹.

B5: LaPPR (Lactobacillus sp. CGMCC 9967; H143D/H89M) (protein)
chain: MMKILNSFSLKPEQRQTLEAAGHTVIDADKLDDATAQQIDVVYGWNAAATRVNFDRLQFVQAMSAGVDYLPLAELAKHHVLLANTSGIMAEPIAEYVLGALFTISRGILPAIRADRDMWTLRQERPPMTLLKGKTAVIFGTGDIGSTIATKLQALGLHTIGVSAHGRPAAGFDQVMTDVATHEAAGRADVVINALPLTPDTKHFYDEAFFAAASKQPLFINIGRGPSVDMAALTQALKNKQISAAALDVVDPEPLPQDSPLWGMTNVLLTPHISGTVPQLRDKVFKIFNDNLKTLISSGQLASHQVDLTRGY
notes: homodimer
In the case of B5, in “purified protein”, the Km was found to be 3.63 ± 0.17 mM, the catalytic constant (kcat) turned out to be 2.35 ± 0.12 s⁻¹ and the kcat/Km turned out to be 650 M⁻¹ s⁻¹.
